Experimental data reported in paper doi:10.1101/2020.06.04.133876 (bioRxiv, 2020).
Numbering of substitutions follows the chain as printed. Names and notes keep the numbering of the source.

B1: Cdc42 (residues 1-177), recombinant (domain or fragment)
chain: not shown
B2: OtDUBGEF (residues 548-759), His-tagged construct (domain or fragment)
chain: ERLVKKVTSNLETELKFFKGRLVQELMQIVKNENGRIDHTSKNWQESASVLLNSQEKGAVSLAEVERAVSKMTQKLRDQKVSEEEVVNIESKLKFERASLEAKLFDDNEIKELINKRIKEDALRAIPFLGSDSESFMEKISPFVKLPDDSYSLLKANDKHHPFQNILYSNALKFFADSSDIGYLNDDSLKNLTPENLNAFEQAVAADIDKLM
notes: source: E. coli BL21(DE3), purified (Ni-NTA, Superdex 75)
B3: GST-OtDUBGEF E561A (domain or fragment)
chain: B2 chain with E14A
notes: OtDUB (ORF OTT_1962), Orientia tsutsugamushi Ikeda isolate; also called switch I (E561A) mutant; source: E. coli Rosetta DE3, purified (glutathione resin)
B4: GST-OtDUBGEF N590A/E593A (domain or fragment)
chain: B2 chain with N43A, E46A
notes: OtDUB (ORF OTT_1962), Orientia tsutsugamushi Ikeda isolate; also called switch II (N590A/E593A) mutant; source: E. coli Rosetta DE3, purified (glutathione resin)
B5: GST-OtDUB C-terminal truncation (275-913) (domain or fragment)
chain: SAEVSSKEELYVPKINQVEESLEAQLKYINEHIASQLMQIVKNSNGEIDCNSSNFQEEVSSLLNSRSKETTSLATIEQNFNEIIQQLRKEKVNEERVSAIELQLKANRAVLEAKLSNTEDVKSLVNQKIKEETLQAIPFFGNAAERANFKKHLAHFVKLPDNSYSLLKQKEKRHPFCNIIGANAVKFFSPQSNAVYLNTSAYNQITSGNLKAFEAAVTTDINNLMLKEAAVTIDAVSPNKEAVESGKDLSKTDELAELKEVKSNLETELKILKERLVKKVTSNLETELKFFKGRLVQELMQIVKNENGRIDHTSKNWQESASVLLNSQEKGAVSLAEVERAVSKMTQKLRDQKVSEEEVVNIESKLKFERASLEAKLFDDNEIKELINKRIKEDALRAIPFLGSDSESFMEKISPFVKLPDDSYSLLKANDKHHPFQNILYSNALKFFADSSDIGYLNDDSLKNLTPENLNAFEQAVAADIDKLMSRDVTLNVSDLKSYVANSPNPDLIADYLALEWQIHTPGLKGLYDDLQASHQLQLNELENKHAKQLLSDLANLSKLPSMRGILPEFKDEFYNEIDKKPEERSVEYKNFINKCSELPDAMLQPAKCSAQALLEFNKYERDLNSFKQGVFCAIDNYK
notes: OtDUB (ORF OTT_1962), Orientia tsutsugamushi Ikeda isolate; pGEX6P1 construct; source: E. coli Rosetta DE3, purified (glutathione resin)

How the values were obtained:
[1] = target: B2; assay: ITC; conditions: both partners purified
[2] = target: T1, Rac1 (residues 1-177), recombinant (human, UniProt P63000 1-177); assay: cell-based or functional assay
[3] = target: T1, Rac1 (residues 1-177), recombinant; assay: ITC; conditions: both partners purified
[4] = target: T1, Rac1 (residues 1-177), recombinant; assay: pull-down; GST-tagged OtDUB fragments (20 μM) as bait and Rac1 (60 µM) as prey, 50 mM Tris-HCl pH 7.5, 150 mM NaCl, 0.1 mM TCEP, glutathione resin 1 h at 4°C; Coomassie; conditions: both partners purified

Binder | binding result [4] | other results
B1 | – | Kd [1]: ~16 µM
B2 | – | kcat/KM of BODIPY-GDP dissociation from Rac1 with increasing amounts of OtDUBGEF [2]: 260000 M⁻¹ s⁻¹; Kd [3]: ~5 µM
B3 | binds | –
B4 | binds | –
B5 | binds | –
